In patent US12534541B2, “Anti-PTK7 antibody and uses thereof” (MABCARE THERAPEUTICS, priority 2023, dated 2026):

Columns and labels:
[1] = molecular target: T1, Human PTK7 protein (Homo sapiens, UniProt Q13308); experiment: Relative binding activity to human PTK7 by ELISA
T1 construct: purchased Acrobiosystems PT7-H52H3
T1 sequence (Q13308 31-1070): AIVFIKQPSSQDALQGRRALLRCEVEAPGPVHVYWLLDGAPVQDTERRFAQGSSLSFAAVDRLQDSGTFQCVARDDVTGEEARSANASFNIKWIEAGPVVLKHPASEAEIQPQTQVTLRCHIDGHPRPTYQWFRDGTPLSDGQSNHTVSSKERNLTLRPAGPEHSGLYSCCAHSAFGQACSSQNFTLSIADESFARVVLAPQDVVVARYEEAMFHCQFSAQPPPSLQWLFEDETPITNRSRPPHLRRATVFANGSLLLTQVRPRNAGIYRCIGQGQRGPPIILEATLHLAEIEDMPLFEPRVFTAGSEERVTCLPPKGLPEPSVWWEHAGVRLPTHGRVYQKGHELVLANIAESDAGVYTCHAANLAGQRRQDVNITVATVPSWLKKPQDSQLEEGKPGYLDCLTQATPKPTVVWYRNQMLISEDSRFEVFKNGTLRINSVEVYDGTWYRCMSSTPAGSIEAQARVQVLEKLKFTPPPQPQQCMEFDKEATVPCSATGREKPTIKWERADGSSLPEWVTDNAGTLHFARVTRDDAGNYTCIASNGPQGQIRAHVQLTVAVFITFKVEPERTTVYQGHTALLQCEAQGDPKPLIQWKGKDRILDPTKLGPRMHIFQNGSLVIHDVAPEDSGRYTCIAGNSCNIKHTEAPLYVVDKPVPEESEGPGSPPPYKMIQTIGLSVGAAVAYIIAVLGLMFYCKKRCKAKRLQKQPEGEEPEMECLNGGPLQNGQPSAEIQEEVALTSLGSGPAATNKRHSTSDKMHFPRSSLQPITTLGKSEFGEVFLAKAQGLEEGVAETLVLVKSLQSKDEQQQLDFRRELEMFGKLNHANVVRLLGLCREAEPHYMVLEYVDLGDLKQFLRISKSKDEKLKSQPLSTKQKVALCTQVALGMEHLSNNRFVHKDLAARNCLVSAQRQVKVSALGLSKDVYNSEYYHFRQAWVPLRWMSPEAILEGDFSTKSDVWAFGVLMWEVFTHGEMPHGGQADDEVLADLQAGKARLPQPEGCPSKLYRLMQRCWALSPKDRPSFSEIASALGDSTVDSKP
Description: (§1) Human PTK7 protein (Catalog No. PT7-H52H3, Acrobiosystems), monkey PTK7 protein (Catalog No. PT7-C52H3, Acrobiosystems), and murine PTK7 protein (Catalog No. PT7-M52H3, Acrobiosystems) were incubated at 4° C. overnight and immobilized onto a 96-well plate. The plate was then blocked by incubating at 37° C. with 1% BSA in PBS for 1 h. After blocking, the plate was washed 3 times with PBST (PBS containing 0.05% Tween 20). Serial dilutions of anti-PTK7 antibody as prepared in Example 2 of the present disclosure was prepared in a binding buffer (PBS containing 0.05% Tween20 and 0.5% BSA) and incubated with the immobilized proteins at 37° C. for 1 h. After binding, the plate was washed 3 times with PBST, incubated with peroxidase-labeled donkey anti-human IgG (Jackson ImmunoResearch) diluted at 1/15,000 in the binding buffer at 37° C. for 1 h, washed again, developed with TMB and terminated with 1M H2SO4. The absorbance at 450 nm-620 nm was measured.

[2] = tested on: monkey PTK7 protein; experiment: Relative binding activity to monkey PTK7 by ELISA
Description: as §1

[3] = molecular target: T2, murine PTK7 protein (Mus musculus, UniProt Q8BKG3); experiment: Relative binding activity to murine PTK7 by ELISA; settings: immobilized protein
T2 construct: purchased Acrobiosystems PT7-M52H3
T2 sequence (Q8BKG3 23-1062): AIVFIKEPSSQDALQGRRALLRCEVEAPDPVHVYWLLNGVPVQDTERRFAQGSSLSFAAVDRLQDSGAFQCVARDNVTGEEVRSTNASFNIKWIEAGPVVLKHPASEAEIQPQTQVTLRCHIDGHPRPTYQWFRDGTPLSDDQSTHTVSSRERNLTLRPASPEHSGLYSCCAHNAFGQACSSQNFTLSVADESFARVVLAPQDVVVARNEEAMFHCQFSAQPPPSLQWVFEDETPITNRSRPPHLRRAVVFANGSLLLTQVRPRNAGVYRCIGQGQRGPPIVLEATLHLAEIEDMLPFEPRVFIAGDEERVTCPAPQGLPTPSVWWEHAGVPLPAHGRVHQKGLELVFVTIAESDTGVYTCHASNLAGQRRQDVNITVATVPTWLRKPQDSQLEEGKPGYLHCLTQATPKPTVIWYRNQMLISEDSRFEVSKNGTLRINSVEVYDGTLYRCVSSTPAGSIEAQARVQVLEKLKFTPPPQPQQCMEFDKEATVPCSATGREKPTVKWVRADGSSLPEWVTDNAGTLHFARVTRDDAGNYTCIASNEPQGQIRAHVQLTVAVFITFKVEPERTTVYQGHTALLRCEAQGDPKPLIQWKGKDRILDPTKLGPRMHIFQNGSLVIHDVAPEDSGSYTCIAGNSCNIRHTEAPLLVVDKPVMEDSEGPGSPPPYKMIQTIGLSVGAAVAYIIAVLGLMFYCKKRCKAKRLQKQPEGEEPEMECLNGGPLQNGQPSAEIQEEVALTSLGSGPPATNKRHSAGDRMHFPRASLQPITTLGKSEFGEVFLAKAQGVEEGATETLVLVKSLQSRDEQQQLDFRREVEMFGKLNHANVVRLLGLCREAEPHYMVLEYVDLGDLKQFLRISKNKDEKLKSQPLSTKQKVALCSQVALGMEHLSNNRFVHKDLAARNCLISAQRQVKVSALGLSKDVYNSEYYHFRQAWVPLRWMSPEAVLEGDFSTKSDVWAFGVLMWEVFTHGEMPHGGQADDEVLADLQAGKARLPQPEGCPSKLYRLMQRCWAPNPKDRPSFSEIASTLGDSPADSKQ
Description: as §1

B1: ch13: human-murine chimeric PTK7 antibody, VH SEQ ID NO: 20, VL SEQ ID NO: 19 (antibody, V domains shown)
VH: QVQLQQSGAELVRPGVSVKISCKGSGYTFTDYGMHWLKQSHAKSLEWIGVISPYYGDVTYNQKFKGKATMTVDKSSSTAYMELARLTSEDSAIYYCARGMGYWGQGTSVTVSS
VL: DVQITQSPSYLAASPGETITINCRASQSISKYLAWYQEKPGKTNKLLIYSGSTLQSGIPSRFSGSGSGTDFTLTISSLEPEDFAMYYCQQHNEYPWTFGGGTKLEIK
Question: Which “affinity compared with h6M24 (positive control antibody)” value ([1]; human PTK7) does the source give for B1 here?
Answer: significantly superior over that of h6M24

Question: What about the “binding to human PTK7 protein” value ([1]; immobilized protein) of the same molecule?
Answer: specifically bind

Question: What about the “binding to monkey PTK7 protein” value ([2]; immobilized protein) of the same molecule?
Answer: specifically bind

Question: What about the “affinity compared with h6M24 (positive control antibody)” value ([2]; monkey PTK7) of the same molecule?
Answer: significantly superior over that of h6M24

Question: And the “cross-reaction with mouse PTK7” value [3]?
Answer: neither ch13 nor h6M24 antibodies cross-react
